Data as given in patent US20230192896A1 (BIOVERATIV THERAPEUTICS, published 2023).
Residue numbers refer to the chain shown, from its start. Each block holds one binder with its values, some of them ahead of it.

Key:
FIXa-SM (FIXa+EGR-CMK) = target: T1, FIXa-SM (FIXa+EGR-CMK) (human, UniProt P00740 47-191; P00740 227-461, EGR-CMK (L-Glu-Gly-Arg chloromethyl ketone) covalently bound to the active site); test: BLI; class meaning: paragraph 914
T1 construct: BLI antigen bought from Haematologic Technologies (HCIXA-EGR); also called FIXa with substrate mimic

[1] = target: T2, free FIXa (activated Factor IX) (human, UniProt P00740 47-191; P00740 227-461); test: BLI; class meaning: paragraph 914
T2 construct: BLI antigen bought from Haematologic Technologies (HCIXA-0050); also called factor IXa

B1: BIIB-9-628 (antibody, V domains shown)
VH: QVQLVQSGAEVKKPGASVKVSCKASGYTFTSYYMHWVRQAPGQGLEWMGIINPSGGSTSYAQKFQGRVTMTRDTSTSTVYMELSSLRSEDTAVYYCAREPIAYGATLDLWGRGTLVTVSS
VL: EIVLTQSPGTLSLSPGERATLSCRASQSVSSDYLAWYQQKPGQAPRLLIYGASSRATGIPDRFSGSGSGTDFTLTISRLEPEDFAVYYCQQYVVFPFTFGGGTKVEIK
notes: IgG
binding result (FIXa-SM (FIXa+EGR-CMK)): binds
binding result [1]: binds

B4: BIIB-9-886 (antibody, V domains shown)
VH: QVQLVQSGAEVKKPGASVKVSCKASGYTFTSYYMHWVRQAPGQGLEWMGIINPSGGSTSYAQKFQGRVTMTRDTSTSTVYMELSSLRSEDTAVYYCARDPAHSYLDAFDIWGQGTMVTVSS
VL: DIQMTQSPSSVSASVGDRVTITCRASQGISSWLAWYQQKPGKAPKLLIYAASSLQSGVPSRFSGSGSGTDFTLTISSLQPEDFATYYCQQASSFPFTFGGGTKVEIK
notes: IgG
binding result (FIXa-SM (FIXa+EGR-CMK)): binds
binding result [1]: binds

B7: BIIB-9-470 (antibody, V domains shown)
VH: EVQLVESGGGLVQPGGSLRLSCAASGFTFSSYWMSWVRQAPGKGLEWVANIKQDGSEKYYVDSVKGRFTISRDNAKNSLYLQMNSLRAEDTAVYYCARDAGIAWALDYWGQGTLVTVS
VL: DIQMTQSPSTLSASVGDRVTITCRASQSISSWLAWYQQKPGKAPKLLIYKASSLESGVPSRFSGSGSGTEFTLTISSLQPDDFATYYCQHPHSWTFGGGTKVEIK
notes: IgG
binding result (FIXa-SM (FIXa+EGR-CMK)): binds
binding result [1]: binds

B8: BIIB-9-615 (antibody, V domains shown)
VH: QVQLVQSGAEVKKPGASVKVSCKASGYTFTSYYMHWVRQAPGQGLEWMGIINPSGGSTSYAQKFQGRVTMTRDTSTSTVYMELSSLRSEDTAVYYCARDSPSSSSYWSLDLWGRGTLVTVSS
VL: EIVLTQSPATLSLSPGERATLSCRASQSVSSYLAWYQQKPGQAPRLLIYDASNRATGIPARFSGSGSGTDFTLTISSLEPEDFAVYYCQQSCHWPWTFGGGTKVEIK
notes: IgG
binding result (FIXa-SM (FIXa+EGR-CMK)): binds
binding result [1]: binds

B9: BIIB-9-882 (antibody, V domains shown)
VH: QVQLVQSGAEVKKPGASVKVSCKASGYTFTSYYMHWVRQAPGQGLEWMGIINPSGGSTSYAQKFQGRVTMTRDTSTSTVYMELSSLRSEDTAVYYCARGPTDSSGYLDMDVWGKGTTVTVSS
VL: EIVMTQSPATLSVSPGERATLSCRASQSVSSNLAWYQQKPGQAPRLLIFGASTRATGIPARFSGSGSGTEFTLTISSLQSEDFAVYYCQQHDNFPPTFGGGTKVEIK
notes: IgG
binding result (FIXa-SM (FIXa+EGR-CMK)): binds
binding result [1]: binds

B10: BIIB-9-888 (antibody, V domains shown)
VH: B9 VH
VL: B9 VL with F49Y, S80P, H91A, D92F, F94W
notes: IgG
binding result (FIXa-SM (FIXa+EGR-CMK)): binds
binding result [1]: binds

B15: BIIB-9-1276 (antibody, V domains shown)
VH: QLQLQESGPGLVKPSETLSLTCTVSGGSISSSSYYWGWIRQPPGKGLEWIGSIYYSGSTYYNPSLKSRVTISVDTSKNQFSLKLSSVTAADTAVYYCARDVGRTYELFDIWGQGTMVTVSS
VL: B4 VL with A91G, S92N, F96I
notes: IgG
binding result (FIXa-SM (FIXa+EGR-CMK)): binds
binding result [1]: binds

The remaining lines, values ahead:

binding result (FIXa-SM (FIXa+EGR-CMK)): binds
binding result [1]: binds
B2: BIIB-9-884 (antibody, V domains shown)
VH: QLQLQESGPGLVKPSETLSLTCTVSGGSISSSDYYWGWIRQPPGKGLEWIGSIYYSGSTYYNPSLKSRVTISVDTSKNQFSLKLSSVTAADTAVYYCARSPRHKVRGPNWFDPWGQGTLVTVSS
VL: B1 VL with D32S, V93H, V94L, F95L, F97P
notes: IgG

binding result (FIXa-SM (FIXa+EGR-CMK)): binds
binding result [1]: binds
B3: BIIB-9-1264 (antibody, V domains shown)
VH: QVQLVQSGAEVKKPGASVKVSCKASGYTFTSYYMHWVRQAPGQGLEWMGIINPSGGSTSYAQKFQGRVTMTRDTSTSTVYMELSSLRSEDTAVYYCARDGDSSVYAFDYWGQGTLVTVSS
VL: DIQMTQSPSSLSASVGDRVTITCQASQDITNYLNWYQQKPGKAPKLLIYDASNLETGVPSRFSGSGSGTDFTFTISSLQPEDIATYYCQQVDDYPFTFGGGTKVEIK
notes: IgG

binding result (FIXa-SM (FIXa+EGR-CMK)): binds
binding result [1]: binds
B5: BIIB-9-625 (antibody, V domains shown)
VH: B15 VH with Y35A, V101R, R103W, T104Y, Y105T, L107V, F108L
VL: B4 VL with V11L, G28S, W32Y, A34N, A91S, S92D, S93T, F94D, F96P
notes: IgG

binding result (FIXa-SM (FIXa+EGR-CMK)): binds
binding result [1]: binds
B6: BIIB-9-887 (antibody, V domains shown)
VH: QVQLVQSGAEVKKPGASVKVSCKASGYTFTSYYMVWVRQAPGQGLEWMGIINPSGGSTSYAQKFQGRVTMTRDTSTSTVYMELSSLRSEDTAVYYCARDAEAHWIPGMDVWGQGTTVTVSS
VL: B4 VL
notes: IgG

binding result (FIXa-SM (FIXa+EGR-CMK)): binds
binding result [1]: binds
B11: BIIB-9-445 (antibody, V domains shown)
VH: QVQLVQSGAEVKKPGASVKVSCKASGYTFTSYYIHWVRQAPGQGLEWMGIINPSGGSTSYAQKFQGRVTMTRDTSTSTVYMELSSLRSEDTAVYYCARDVGQDYWFDLWGRGTLVTVSS
VL: B9 VL with F49Y, G50S, H91Y, P96F
notes: IgG

binding result (FIXa-SM (FIXa+EGR-CMK)): binds
binding result [1]: binds
B12: BIIB-9-568 (antibody, V domains shown)
VH: B15 VH with V101L, R103Y, T104A, Y105A, E106T, L107Y, I110L, Q113R, M116L
VL: DIQMTQSPSSLSASVGDRVTITCQASQDISNYLNWYQQKPGKAPKLLIYDASNLETGVPSRFSGSGSGTDFTFTISSLQPEDIATYYCQQYDDYLTFGGGTKVEIK
notes: IgG

binding result (FIXa-SM (FIXa+EGR-CMK)): binds
binding result [1]: binds
B13: BIIB-9-889 (antibody, V domains shown)
VH: B15 VH with R103W, T104Y, Y105T, L107Y, I110L, Q113R, M116L
VL: B9 VL with F49Y, H91A, D92F, F94W
notes: IgG

binding result (FIXa-SM (FIXa+EGR-CMK)): binds
binding result [1]: binds
B14: BIIB-9-433 (antibody, V domains shown)
VH: B15 VH with S33R, V101A, R103Y, T104S, Y105A, I110Y, M116L
VL: B8 VL with C92S, H93A, W94Y, W96P
notes: IgG

binding result (FIXa-SM (FIXa+EGR-CMK)): binds
binding result [1]: binds
B16: BIIB-9-1265 (antibody, V domains shown)
VH: B15 VH with V101G, G102R, R103H, T104Y, I110Y, M116L
VL: B4 VL with A91G, S92N, F96I
notes: IgG
